Measured values from patent publication US12269859B2, “Synthetic immune receptors and methods of use thereof” (Angeles Therapeutics, Inc., priority 2016, dated 2025).

B1: 092515-Y08 (protein)
chain: MALPVTALLLPLALLLHAARPDEIVLTQSPATLSLSPGERATLSCSASSSVSYMHWYQQKPGQAPRLLIYDTSKLASGIPARFSGSGSGTDFTLTISSLEPEDVAVYYCFQGSVYPFTFGQGTKLEIKRGGGGSGGGGSGGGGSQVQLQESGPGLVKPSQTLSLTCTVSGGSISTSGMGVGWIRQHPGKGLEWIGHIWWDDDKRYNPALKSRVTISVDTSKNQFSLKLSSVTAADTAVYYCARMELWSYYFDYWGQGTLVTVSSLESWKDASGWSCTDPQPLKEQPALNDSRYCLSSRLRVSATFWQNPRNHFRCQVQFYGLSENDEWTQDRAKPVTQIVSAEAWGRADCGFTSESYQQGVLSATILYEILLGKATLYAVLVSALVLMAMVKRKDSRGRAKRSGSGATNFSLLKQAGDVEENPGPTSMALPVTALLLPLALLLHAARPDIQMTQTTSSLSASLGDRVTISCRASQDISKYLNWYQQKPDGTVKLLIYHTSRLHSGVPSRFSGSGSGTDYSLTISNLEQEDIATYFCQQGNTLPYTFGGGTKLEITTREQKLISEEDLSSCDVKLVEKSFETDTNLNFQNLSVIGFRILLLKVAGFNLLMTLRLWSSSSRAKRSGSGVKQTLNFDLLKLAGDVESNPGPSRGHMTEYKPTVRLATRDDVPRAVRTLAAAFADYPATRHTVDPDRHIERVTELQELFLTRVGLDIGKVWVADDGAAVAVWTTPESVEAGAVFAEIGPRMAELSGSRLAAQQQMEGLLAPHRPKEPAWFLATVGVSPDHQGKGLGSAVVLPGVEAAERAGVPAFLETSAPRNLPFYERLGFTVTADVEVPEGPRTWCMTRKPGA
modifications: Synthetic Immune Receptor (SIR)
B2: 052316-J03 (protein)
chain: MALPVTALLLPLALLLHAARPDEIVLTQSPATLSLSPGERATLSCSASSSVSYMHWYQQKPGQAPRLLIYDTSKLASGIPARFSGSGSGTDFTLTISSLEPEDVAVYYCFQGSVYPFTFGQGTKLEIKRGGGGSGGGGSGGGGSQVQLQESGPGLVKPSQTLSLTCTVSGGSISTSGMGVGWIRQHPGKGLEWIGHIWWDDDKRYNPALKSRVTISVDTSKNQFSLKLSSVTAADTAVYYCARMELWSYYFDYWGQGTLVTVSSTREQKLISEEDGSGIQNPDPAVYQLRDSKSSDKSVCLFTDFDSQTNVSQSKDSDVYITDKTVLDMRSMDFKSNSAVAWSNKSDFACANAFNNSIIPEDTFFPSPESSCDVKLVEKSFETDTNLNFQNLSVIGFRILLLKVAGFNLLMTLRLWSSRAKRSGSGVKQTLNFDLLKLAGDVESNPGPSRGHMTEYKPTVRLATRDDVPRAVRTLAAAFADYPATRHTVDPDRHIERVTELQELFLTRVGLDIGKVWVADDGAAVAVWTTPESVEAGAVFAEIGPRMAELSGSRLAAQQQMEGLLAPHRPKEPAWFLATVGVSPDHQGKGLGSAVVLPGVEAAERAGVPAFLETSAPRNLPFYERLGFTVTADVEVPEGPRTWCMTRKPGA
modifications: Synthetic Immune Receptor (SIR)
B3: 102616-D06 (protein)
chain: MALPVTALLLPLALLLHAARPDVQMIQTPDSLAVSLGQRATISCRASESVDNYGISFMHWYQQKPGQSPKLLIYRASNLESGIPARFSGSGSRTDFTLTINPVETDDVATYYCQQNNKDPPTFGGGTKLEIKLEGKPIPNPLLGLDSTGSGEDLKNVFPPEVAVFEPSKAEIAHTQKATLVCLATGFYPDHVELSWWVNGKEVHSGVCTDPQPLKEQPALNDSRYCLSSRLRVSATFWQNPRNHFRCQVQFYGLSENDEWTQDRAKPVTQIVSAEAWGRADCGITSASYHQGVLSATILYEILLGKATLYAVLVSALVLMAMVKRKDSRGRAKRSGSGATNFSLLKQAGDVEENPGPTSMDWIWRILFLVGAATGAHSFEGGGGSQVQLQQSGAELVKPGASVKISCKASGYAFSSYWMNWVKQRPGKGLEWIGQIYPGDGDTTYNGKFKGKATLTADKSSSTVYMQLNSLTSEDSAVYFCVRYYYGSSGYFDYWGQGTTLTVSSTREQKLISEEDGSGIQNPDPAVYQLRDSKSSDKSVCLFTDFDSQTNVSQSKDSDVYITDKCVLDMRSMDFKSNSAVAWSNKSDFACANAFNNSIIPEDTFFPSSDVPCDVKLVEKSFETDTNLNFQNLSVIGFRILLLKVAGFNLLMTLRLWSSRAKRSGSGVKQTLNFDLLKLAGDVESNPGPSRGHMTEYKPTVRLATRDDVPRAVRTLAAAFADYPATRHTVDPDRHIERVTELQELFLTRVGLDIGKVWVADDGAAVAVWTTPESVEAGAVFAEIGPRMAELSGSRLAAQQQMEGLLAPHRPKEPAWFLATVGVSPDHQGKGLGSAVVLPGVEAAERAGVPAFLETSAPRNLPFYERLGFTVTADVEVPEGPRTWCMTRKPGA
modifications: Synthetic Immune Receptor (SIR)
B4: 060816-H05 (protein)
chain: MALPVTALLLPLALLLHAARPDEIVLTQSPATLSLSPGERATLSCSASSSVSYMHWYQQKPGQAPRLLIYDTSKLASGIPARFSGSGSGTDFTLTISSLEPEDVAVYYCFQGSVYPFTFGQGTKLEIKRGGGGSGGGGSGGGGSQVQLQESGPGLVKPSQTLSLTCTVSGGSISTSGMGVGWIRQHPGKGLEWIGHIWWDDDKRYNPALKSRVTISVDTSKNQFSLKLSSVTAADTAVYYCARMELWSYYFDYWGQGTLVTVSSTREQKLISEEDGSGTPFPSLAPPIMLLVDGKQQMVVVCLVLDVAPPGLDSPIWFSAGNGSALDAFTYGPSPATDGTWTNLAHLSLPSEELASWEPLVCHTGPGAEGHSRSTQPMHLSGEASTARTCPQEPLRGTPGGALWLGVLRLLLFKLLLFDLLLTCSCLCDPAGPLPSPATTTRLRALGSHRLHPATETGGREATSSPRPQPRDRRWGDTPPGRKPGSPVRAKRSGSGVKQTLNFDLLKLAGDVESNPGPSRGHMTEYKPTVRLATRDDVPRAVRTLAAAFADYPATRHTVDPDRHIERVTELQELFLTRVGLDIGKVWVADDGAAVAVWTTPESVEAGAVFAEIGPRMAELSGSRLAAQQQMEGLLAPHRPKEPAWFLATVGVSPDHQGKGLGSAVVLPGVEAAERAGVPAFLETSAPRNLPFYERLGFTVTADVEVPEGPRTWCMTRKPGA
modifications: Synthetic Immune Receptor (SIR)
B5: 010417-B04 (protein)
chain: MALPVTALLLPLALLLHAARPLEGKPIPNPLLGLDSTGSGEDLKNVFPPEVAVFEPSKAEIAHTQKATLVCLATGFYPDHVELSWWVNGKEVHSGVCTDPQPLKEQPALNDSRYCLSSRLRVSATFWQNPRNHFRCQVQFYGLSENDEWTQDRAKPVTQIVSAEAWGRADCGITSASYHQGVLSATILYEILLGKATLYAVLVSALVLMAMVKRKDSRGRAKRSGSGATNFSLLKQAGDVEENPGPTSTMALPVTALLLPLALLLHAARPDEIVLTQSPATLSLSPGERATLSCSASSSVSYMHWYQQKPGQAPRLLIYDTSKLASGIPARFSGSGSGTDFTLTISSLEPEDVAVYYCFQGSVYPFTFGQGTKLEIKRGGGGSGGGGSGGGGSQVQLQESGPGLVKPSQTLSLTCTVSGGSISTSGMGVGWIRQHPGKGLEWIGHIWWDDDKRYNPALKSRVTISVDTSKNQFSLKLSSVTAADTAVYYCARMELWSYYFDYWGQGTLVTVSSTREAAAKDDIVMTQSPDSLTVSLGERTTINCKSSQSVLDSSKNKNSLAWYQQKPGQPPKLLLSWASTRESGIPDRFSGSGSGTDFTLTIDSLQPEDSATYYCQQSAHFPITFGQGTRLEIKGGGGSGGGGSGGGGSQVQLVQSGAEVKKPGASVKVSCKASGYTFTNYGMNWVKQAPGQGLKWMGWINTYTGEPTYADDFKGRVTMTSDTSTSTAYLELHNLRSDDTAVYYCARWSWSDGYYVYFDYWGQGTTVTVSSTREQKLISEEDGSGIQNPDPAVYQLRDSKSSDKSVCLFTDFDSQTNVSQSKDSDVYITDKCVLDMRSMDFKSNSAVAWSNKSDFACANAFNNSIIPEDTFFPSSDVPCDVKLVEKSFETDTNLNFQNLSVIGFRILLLKVAGFNLLMTLRLWSSRAKRSGSGVKQTLNFDLLKLAGDVESNPGPSRGHMTEYKPTVRLATRDDVPRAVRTLAAAFADYPATRHTVDPDRHIERVTELQELFLTRVGLDIGKVWVADDGAAVAVWTTPESVEAGAVFAEIGPRMAELSGSRLAAQQQMEGLLAPHRPKEPAWFLATVGVSPDHQGKGLGSAVVLPGVEAAERAGVPAFLETSAPRNLPFYERLGFTVTADVEVPEGPRTWCMTRKPGA
B6: 041216 C02 (protein)
chain: MALPVTALLLPLALLLHAARPDEIVLTQSPATLSLSPGERATLSCSASSSVSYMHWYQQKPGQAPRLLIYDTSKLASGIPARFSGSGSGTDFTLTISSLEPEDVAVYYCFQGSVYPFTFGQGTKLEIKRGGGGSGGGGSGGGGSQVQLQESGPGLVKPSQTLSLTCTVSGGSISTSGMGVGWIRQHPGKGLEWIGHIWWDDDKRYNPALKSRVTISVDTSKNQFSLKLSSVTAADTAVYYCARMELWSYYFDYWGQGTLVTVSSLEGKPIPNPLLGLDSTGSGEDLKNVFPPEVAVFEPSKAEIAHTQKATLVCLATGFYPDHVELSWWVNGKEVHSGVCTDPQPLKEQPALNDSRYCLSSRLRVSATFWQNPRNHFRCQVQFYGLSENDEWTQDRAKPVTQIVSAEAWGRADCGITSASYHQGVLSATILYEILLGKATLYAVLVSALVLMAMVKRKDSRGRAKRSGSGATNFSLLKQAGDVEENPGPTSMALPVTALLLPLALLLHAARPDIQMTQSPATIENTSLSASVGDRVTITCRASQGISSWLTWYQQKPEKAPKSLIYAASSLQSGVPSRFSGSGSGTDFTLTISSLQPEDFATYYCQQYDSYPITFGQGTRLEIKGGGGSGGGGSGGGGSQVQLQQWGAGLLKPSETLSLTCAVYGGSFSAYYWSWIRQPPGKGLEWIGDINHGGGTNYNPSLKSRVTISVDTSKNQFSLKLNSVTAADTAVYYCASLTAYWGQGSLVTVSSTREQKLISEEDGSGIQNPDPAVYQLRDSKSSDKSVCLFTDFDSQTNVSQSKDSDVYITDKCVLDMRSMDFKSNSAVAWSNKSDFACANAFNNSIIPEDTFFPSSDVPCDVKLVEKSFETDTNLNFQNLSVIGFRILLLKVAGFNLLMTLRLWSSRAKRSGSGVKQTLNFDLLKLAGDVESNPGPSRGHMTEYKPTVRLATRDDVPRAVRTLAAAFADYPATRHTVDPDRHIERVTELQELFLTRVGLDIGKVWVADDGAAVAVWTTPESVEAGAVFAEIGPRMAELSGSRLAAQQQMEGLLAPHRPKEPAWFLATVGVSPDHQGKGLGSAVVLPGVEAAERAGVPAFLETSAPRNLPFYERLGFTVTADVEVPEGPRTWCMTRKPGA
modifications: Synthetic polynucleotide encoding a SIR

Tested on: target antigen-expressing cell line
Test: Jurkat NFAT-GFP assay, coculture with target cell lines expressing the respective target antigen (summary Table 10A)
Format: cell-based, human
Set-up: key: The signs +/−, +, 2+ etc. after the name of the cell lines indicate the relative degree of positivity on the Jurkat-NFAT-GFP assay as measured by the % GFP positive cells; +: relative degree of positivity on the Jurkat-NFAT-GFP assay as measured by the % GFP positive cells; 2+: relative degree of positivity on the Jurkat-NFAT-GFP assay as measured by the % GFP positive cells
Conditions: relative % GFP positive cells; for NFAT-GFP ASSAY Positive Cell lines: NALM6: SIR-expressing Jurkat-NFAT-GFP cells cocultured with NALM6; for NFAT-GFP ASSAY Positive Cell lines: RAJI: SIR-expressing Jurkat-NFAT-GFP cells cocultured with RAJI
In short: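 Read-out: % GFP+ cells by FACS. SIR-transduced, puromycin-selected Jurkat NFAT-GFP (IL-2 promoter reporter) cocultured ~4–18 h with target line, E:T ~1:2; parental cells as control; graded +/−, +, 2+ relative to parental.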

Molecule | NFAT-GFP ASSAY Positive Cell lines: NALM6 | NFAT-GFP ASSAY Positive Cell lines: RAJI | further results
B1 | RAJI (+), NALM6 (+) | RAJI (+), NALM6 (+) | 
B2 |  | RAJI (+) | 
B3 |  |  | NFAT-GFP ASSAY Positive Cell lines: LAN5 (SIR-expressing Jurkat-NFAT-GFP cells cocultured with LAN5): LAN5 (+)
B4 |  | RAJI (+) | 
B5 | + | RAJI (+), NALM6 | NFAT-GFP ASSAY Positive Cell lines: HL60 (SIR-expressing Jurkat-NFAT-GFP cells cocultured with HL60): +/−
B6 |  |  | NFAT-GFP ASSAY Positive Cell lines: L428 (SIR-expressing Jurkat-NFAT-GFP cells cocultured with L428): L428 (+/−)
